Source: the supplement of paper PMC10724198
± gives the standard deviation of the averaged measurements.

What was measured:
[1] = system: Saccharomyces cerevisiae; assay: protein stability index of tFT-peptide fusion (C-terminal peptide) (PSI (0-1 scale)); higher = more stable (slower turnover); settings: genetic background: wild type; temperature: 30 C
[2] = system: Saccharomyces cerevisiae; assay: as above
Experimental: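 MPS profiling in S. cerevisiae of the tFT-X12 degron library: putative degron peptides plus stable controls, 12 aa, fused to the C-terminus of a sfGFP-mCherry timer. Cells are FACS-sorted into 8 mCherry/sfGFP bins and deep-sequenced. PSI runs from 0 (unstable) to 1 (stable). Backgrounds are wild type, das1Δ and doa10Δ at 30 °C, and wild type, das1Δ, cdc34-1 and cdc53-1 at 37 °C; 2-3 technical replicates each.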

[3] = genetic background: cdc34-1, temperature: 37 C
[4] = genetic background: cdc53-1, temperature: 37 C
[5] = genetic background: das1 deletion, temperature: 30 C
[6] = genetic background: das1 deletion, temperature: 37 C
[7] = genetic background: doa10 deletion, temperature: 30 C
[8] = genetic background: wild type, temperature: 30 C
[9] = genetic background: wild type, temperature: 37 C
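Note: PSI is a weighted mean of sequencing reads over stability bins, variants kept only with over 10 reads, mCherry proximal and sfGFP distal, peptide attached via GGGS linker.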

| Sequence | protein stability index [1] | protein stability index [2, 3] | protein stability index [2, 4] | protein stability index [2, 5] | protein stability index [2, 6] | protein stability index [2, 7] | protein stability index [2, 8] | protein stability index [2, 9] |
| --- | --- | --- | --- | --- | --- | --- | --- | --- |
| LGRVSAKFFCVL | 0.239 ± 0.022 | 0.654 ± 0.066 | 0.74 ± 0.013 | 0.646 ± 0.014 | 0.7237 ± 0.0027 | 0.13 ± 0.015 | 0.134 ± 0.022 | 0.246 ± 0.018 |
| LGVCLFFVRCWS | 0.174 ± 0.047 | 0.1796 ± 0.0014 | 0.205 ± 0.0098 | 0.189 ± 0.033 | 0.324 ± 0.019 | 0.159 ± 0.025 | 0.184 ± 0.033 | 0.271 ± 0.034 |
| LIFRLCVCGVFW | 0.4101 ± 0.00073 | 0.516 ± 0.03 | 0.549 ± 0.015 | 0.468 ± 0.044 | 0.5218 ± 0.0011 | 0.278 ± 0.017 | 0.271 ± 0.032 | 0.376 ± 0.009 |
| LILRVLFLFEPC | 0.42 ± 0.025 | 0.4385 ± 0.0028 | 0.4842 ± 0.0035 | 0.389 ± 0.026 | 0.511 ± 0.0049 | 0.395 ± 0.022 | 0.368 ± 0.031 | 0.481 ± 0.0066 |
| LIRLCVAPMVCR | 0.438 ± 0.015 | 0.455 ± 0.02 | 0.48 ± 0.0056 | 0.349 ± 0.023 | 0.5145 ± 0.0016 | 0.32 ± 0.005 | 0.349 ± 0.02 | 0.485 ± 0.011 |
| LKKTLNGRRKMI | 0.416 ± 0.037 | 0.626 ± 0.019 | 0.73 ± 0.042 | 0.638 ± 0.048 | 0.736 ± 0.015 | 0.239 ± 0.063 | 0.282 ± 0.036 | 0.373 ± 0.02 |
| LLASFWKFIVNI | 0.23 ± 0.016 | 0.613 ± 0.036 | 0.722 ± 0.015 | 0.641 ± 0.058 | 0.7 ± 0.073 | 0.139 ± 0.012 | 0.166 ± 0.012 | 0.166 ± 0.011 |
| LLAWLHTVQRVG | 0.339 ± 0.011 | 0.695 ± 0.028 | 0.7529 ± 0.0028 | 0.659 ± 0.02 | 0.7844 ± 0.0033 | 0.226 ± 0.0046 | 0.271 ± 0.023 | 0.493 ± 0.013 |
| LLFLVCFFPSIS | 0.454 ± 0.05 | 0.46 ± 0.061 | 0.534 ± 0.016 | 0.311 ± 0.045 | 0.549 ± 0.033 | 0.304 ± 0.0092 | 0.313 ± 0.043 | 0.52 ± 0.036 |
| LLFYSYFFFVLY | 0.265 ± 0.0037 | 0.172 ± 0.034 | 0.148 ± 0.0098 | 0.248 ± 0.021 | 0.341 ± 0.015 | 0.312 ± 0.023 | 0.213 ± 0.0032 | 0.286 ± 0.023 |
| LLGGRVLWAWRV | 0.376 ± 0.022 | 0.653 ± 0.045 | 0.689 ± 0.052 | 0.626 ± 0.016 | 0.737 ± 0.019 | 0.155 ± 0.026 | 0.199 ± 0.022 | 0.3907 ± 0.0025 |
| LLLLFPSPLFIR | 0.281 ± 0.05 | 0.126 ± 0.057 | 0.0999 ± 0.026 | 0.235 ± 0.012 | 0.303 ± 0.022 | 0.553 ± 0.024 | 0.216 ± 0.019 | 0.272 ± 0.02 |
| LLLRQVFSLGVF | 0.162 ± 0.0081 | 0.549 ± 0.048 | 0.64 ± 0.023 | 0.558 ± 0.011 | 0.6741 ± 0.0063 | 0.104 ± 0.018 | 0.142 ± 0.014 | 0.312 ± 0.021 |
| LLLVSLAVPLSL | 0.509 ± 0.022 | 0.524 ± 0.013 | 0.569 ± 0.014 | 0.465 ± 0.017 | 0.559 ± 0.021 | 0.451 ± 0.03 | 0.459 ± 0.02 | 0.539 ± 0.0084 |
| LLSLPTTNLMAF | 0.484 ± 0.014 | 0.575 ± 0.029 | 0.61058 ± 0.00044 | 0.49 ± 0.026 | 0.615 ± 0.0099 | 0.356 ± 0.02 | 0.403 ± 0.018 | 0.56467 ± 0.00055 |
| LLTLILRIFVLN | 0.225 ± 0.024 | 0.304 ± 0.031 | 0.451 ± 0.0055 | 0.316 ± 0.028 | 0.476 ± 0.028 | 0.144 ± 0.01 | 0.147 ± 0.028 | 0.217 ± 0.037 |
| LLVFFLAIPSLV | 0.337 ± 0.031 | 0.286 ± 0.011 | 0.343 ± 0.02 | 0.23 ± 0.037 | 0.413 ± 0.0073 | 0.195 ± 0.014 | 0.219 ± 0.033 | 0.3853 ± 0.002 |
| LLVFSLLYPCLV | 0.345 ± 0.021 | 0.324 ± 0.0049 | 0.362 ± 0.017 | 0.289 ± 0.031 | 0.419 ± 0.013 | 0.241 ± 0.0036 | 0.272 ± 0.02 | 0.3913 ± 0.0032 |
| LLVIAIKVPANS | 0.429 ± 0.024 | 0.489 ± 0.013 | 0.485 ± 0.0072 | 0.352 ± 0.025 | 0.507 ± 0.018 | 0.337 ± 0.036 | 0.358 ± 0.012 | 0.485 ± 0.00075 |
| LLVYLYFFFSCS | 0.374 ± 0.022 | 0.309 ± 0.041 | 0.442 ± 0.045 | 0.292 ± 0.021 | 0.484 ± 0.005 | 0.2414 ± 0.0016 | 0.263 ± 0.011 | 0.42 ± 0.027 |

| Sequence | protein stability index [1] | protein stability index [2, 3] | protein stability index [2, 4] | protein stability index [2, 5] | protein stability index [2, 6] | protein stability index [2, 7] | protein stability index [2, 8] | protein stability index [2, 9] |
| --- | --- | --- | --- | --- | --- | --- | --- | --- |
| LLYHFCLFFFRE | 0.513 ± 0.044 | 0.521 ± 0.044 | 0.592 ± 0.037 | 0.462 ± 0.024 | 0.619 ± 0.014 | 0.441 ± 0.015 | 0.449 ± 0.011 | 0.558 ± 0.053 |
| LMVLISVMFSLG | 0.323 ± 0.022 | 0.112 ± 0.0088 | 0.254 ± 0.029 | 0.149 ± 0.022 | 0.292 ± 0.012 | 0.113 ± 0.013 | 0.182 ± 0.032 | 0.231 ± 0.012 |
| LMWVFPRVVWLY | 0.0903 ± 0.014 | 0.123 ± 0.037 | 0.102 ± 0.016 | 0.244 ± 0.042 | 0.321 ± 0.022 | 0.0838 ± 0.0041 | 0.0646 ± 0.0052 | 0.0611 ± 0.00062 |
| LPLHTLLLCPPV | 0.493 ± 0.031 | 0.447 ± 0.037 | 0.459 ± 0.013 | 0.37 ± 0.03 | 0.4988 ± 0.003 | 0.345 ± 0.0046 | 0.382 ± 0.024 | 0.4782 ± 0.0033 |
| LPLVFYCFLLHS | 0.4422 ± 0.002 | 0.49 ± 0.026 | 0.523 ± 0.0057 | 0.394 ± 0.029 | 0.518 ± 0.0063 | 0.386 ± 0.01 | 0.376 ± 0.035 | 0.509 ± 0.015 |
| LPVPVLGFPPLA | 0.7186 ± 0.0014 | 0.703 ± 0.022 | 0.778 ± 0.018 | 0.664 ± 0.018 | 0.732 ± 0.032 | 0.659 ± 0.027 | 0.655 ± 0.015 | 0.71 ± 0.011 |
| LRCCGALPLYAY | 0.348 ± 0.018 | 0.251 ± 0.038 | 0.248 ± 0.03 | 0.238 ± 0.038 | 0.3968 ± 0.0033 | 0.189 ± 0.014 | 0.228 ± 0.028 | 0.341 ± 0.022 |
| LRFFYFLHFCIL | 0.277 ± 0.03 | 0.36 ± 0.033 | 0.366 ± 0.024 | 0.43 ± 0.018 | 0.504 ± 0.0076 | 0.256 ± 0.0083 | 0.223 ± 0.0052 | 0.286 ± 0.021 |
| LRRVHRIKLQVC | 0.178 ± 0.094 | 0.254 ± 0.06 | 0.431 ± 0.035 | 0.288 ± 0.029 | 0.477 ± 0.014 | 0.0938 ± 0.0029 | 0.0996 ± 0.015 | 0.102 ± 0.0019 |
| LRVAWVCISIVA | 0.117 ± 0.027 | 0.0375 ± 0.005 | 0.0899 ± 0.006 | 0.0876 ± 0.023 | 0.164 ± 0.0029 | 0.0363 ± 0.011 | 0.0495 ± 0.015 | 0.0664 ± 0.0091 |
| LRVPCPPCCVFV | 0.398 ± 0.027 | 0.568 ± 0.049 | 0.69936 ± 0.0003 | 0.616 ± 0.016 | 0.727 ± 0.0099 | 0.33 ± 0.015 | 0.334 ± 0.009 | 0.4302 ± 0.0026 |
| LSQPGWFKCCLS | 0.42 ± 0.013 | 0.653 ± 0.014 | 0.737 ± 0.05 | 0.662 ± 0.029 | 0.7677 ± 0.00079 | 0.308 ± 0.023 | 0.326 ± 0.023 | 0.463 ± 0.029 |
| LSRFRYFVLTSL | 0.261 ± 0.041 | 0.531 ± 0.026 | 0.6913 ± 0.0028 | 0.608 ± 0.018 | 0.698 ± 0.033 | 0.146 ± 0.015 | 0.171 ± 0.019 | 0.263 ± 0.037 |
| LSVSEILAVKCG | 0.489 ± 0.012 | 0.559 ± 0.034 | 0.584 ± 0.0073 | 0.429 ± 0.034 | 0.592 ± 0.026 | 0.363 ± 0.0039 | 0.411 ± 0.026 | 0.5632 ± 0.0052 |
| LTACRYVCFLLF | 0.261 ± 0.041 | 0.575 ± 0.019 | 0.644 ± 0.018 | 0.561 ± 0.017 | 0.676 ± 0.037 | 0.239 ± 0.0088 | 0.261 ± 0.032 | 0.424 ± 0.012 |
| LTFRFGVNPYVF | 0.323 ± 0.011 | 0.631 ± 0.034 | 0.748 ± 0.013 | 0.634 ± 0.019 | 0.752 ± 0.024 | 0.132 ± 0.0056 | 0.14 ± 0.023 | 0.283 ± 0.015 |
| LVLELYRFARFG | 0.3197 ± 0.0012 | 0.636 ± 0.03 | 0.7337 ± 0.0046 | 0.643 ± 0.0069 | 0.742 ± 0.015 | 0.2704 ± 0.00045 | 0.276 ± 0.043 | 0.532 ± 0.038 |
| LVLFVVGGWVSL | 0.445 ± 0.043 | 0.35 ± 0.023 | 0.474 ± 0.082 | 0.316 ± 0.023 | 0.551 ± 0.014 | 0.279 ± 0.0085 | 0.311 ± 0.029 | 0.54 ± 0.076 |
| LVSLCYAYPRYC | 0.387 ± 0.025 | 0.646 ± 0.016 | 0.685 ± 0.008 | 0.532 ± 0.016 | 0.7025 ± 0.0052 | 0.2577 ± 0.00032 | 0.279 ± 0.031 | 0.5826 ± 0.0029 |
